Measurements from US20250206823A1 (published 2025).

Target: CD33 naturally expressed on HL60 cells (human, UniProt P20138 18-364)
Experiment: FACS

Sequence of CD33 naturally expressed on HL60 cells (P20138 18-364): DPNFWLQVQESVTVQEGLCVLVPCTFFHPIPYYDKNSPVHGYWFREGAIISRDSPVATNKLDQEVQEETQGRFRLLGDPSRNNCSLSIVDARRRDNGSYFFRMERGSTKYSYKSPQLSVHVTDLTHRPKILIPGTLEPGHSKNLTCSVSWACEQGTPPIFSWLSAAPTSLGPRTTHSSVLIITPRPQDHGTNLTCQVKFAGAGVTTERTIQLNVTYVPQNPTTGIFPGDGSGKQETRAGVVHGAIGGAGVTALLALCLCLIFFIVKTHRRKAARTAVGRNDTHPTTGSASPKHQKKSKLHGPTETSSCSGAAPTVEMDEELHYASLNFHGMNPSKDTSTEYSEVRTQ

EC50: 11.4 nM
B1: CD33/CD16A bispecific antibody QP411543674368 (FC with L234A/L235A mutation for eliminating function) (bispecific antibody)
scFv: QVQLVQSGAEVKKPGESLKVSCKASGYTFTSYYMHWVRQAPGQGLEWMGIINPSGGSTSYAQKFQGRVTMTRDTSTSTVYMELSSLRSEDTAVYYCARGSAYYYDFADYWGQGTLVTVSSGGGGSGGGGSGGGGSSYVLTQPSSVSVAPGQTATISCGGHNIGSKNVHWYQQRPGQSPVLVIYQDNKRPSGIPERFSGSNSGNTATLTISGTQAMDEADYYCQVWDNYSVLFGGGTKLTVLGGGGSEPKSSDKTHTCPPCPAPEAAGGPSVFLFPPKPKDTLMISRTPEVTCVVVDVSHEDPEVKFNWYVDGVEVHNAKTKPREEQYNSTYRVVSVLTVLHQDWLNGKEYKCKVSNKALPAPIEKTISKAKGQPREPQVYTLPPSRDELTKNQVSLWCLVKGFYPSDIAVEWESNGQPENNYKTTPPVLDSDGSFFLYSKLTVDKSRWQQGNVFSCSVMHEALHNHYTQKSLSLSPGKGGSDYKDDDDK
heavy: QVQLVQSGAEVKKPGESVKVSCKASGYTFTNYGMNWVKQAPGQGLEWMGWINTYTGEPTYADKFQGRVTMTTDTSTSTAYMEIRNLGGDDTAVYYCARWSWSDGYYVYFDYWGQGTSVTVSSASTKGPSVFPLAPSSKSTSGGTAALGCLVKDYFPEPVTVSWNSGALTSGVHTFPAVLQSSGLYSLSSVVTVPSSSLGTQTYICNVNHKPSNTKVDKKVEPKSCDKTHTCPPCPAPEAAGGPSVFLFPPKPKDTLMISRTPEVTCVVVDVSHEDPEVKFNWYVDGVEVHNAKTKPREEQYNSTYRVVSVLTVLHQDWLNGKEYKCKVSNKALPAPIEKTISKAKGQPREPQVYTLPPSREEMTKNQVSLSCAVKGFYPSDIAVEWESNGQPENNYKTTPPVLDSDGSFFLVSKLTVDKSRWQQGNVFSCSVMHEALHNRYTQKSLSLSPGKGGSHHHHHH
light: DIVMTQSPDSLTVSLGERTTINCKSSQSVLDSSTNKNSLAWYQQKPGQPPKLLLSWASTRESGIPDRFSGSGSGTDFTLTIDSPQPEDSATYYCQQSAHFPITFGQGTRLEIKRTVAAPSVFIFPPSDEQLKSGTASVVCLLNNFYPREAKVQWKVDNALQSGNSQESVTEQDSKDSTYSLSSTLTLSKADYEKHKVYACEVTHQGLSSPVTKSFNRGEC
